Test: Effect of glycosidase treatment on rHuPH20 hyaluronidase activity
Type: biochemical
Set-up: unit not given here
Description: In short, a 4×BH 96-well plate was coated with biotinylated-HA (1.1 MDa). The 72 hour post transfection supernatant from cells transfected with human PH20 hyaluronidase carboxy-terminus deletion mutants was diluted in buffer at either pH 7.4 or pH 5.5 and added to individual wells of the plate and allowed to incubate at 37° C. for 90 minutes. The reaction was terminated by addition of 4M guanidine HCl. The wells were washed 4× with Phosphate Buffered Saline with Tween20 (PBST) to remove any digested biotinylated-HA followed by addition of streptavidin-HRP for 1 hour at room temperature. The wells were washed 4× with PBST and the plate was developed with TMB. The plate was read at 450 nm using an ELISA plate reader. Hyaluronidase activity (in Units/mL) was determined by interpolating the measured absorbance at 450 nm with a hyaluronidase reference standard curve. Full length mature human PH20 hyaluronidase and untransfected CHO cells were used as positive and negative controls.
Human PH20 hyaluronidase is glycosylated at six different asparagine residues, including N82, N166, N235, N254, N368, and N393. Five glycosidases were used to generate deglycosylated human PH20 hyaluronidase, including: PNGaseF (New England Biolabs, Cat. No. P0704S, Lot #34), which cleaves all N-glycans; EndoF1, which cleaves high mannose and hybrid type glycans; EndoF2, which cleaves biantennary complex type glycans; EndoF3, which cleaves biantennary and more branched complex glycans; and EndoH (New England Biolabs, Cat. No. P0702S), which cleaves high mannose and hybrid type glycans. Therefore, treatment with PNGaseF results in complete deglycosylation whereas treatment with endoglycosidases results in only partial deglycosylation.
For complete deglycosylation, purified rHuPH20 (0.1 mg/mL final concentration) was incubated with PNGaseF (50,000 units/mL) in 50 mM phosphate buffer pH 7.2 overnight at 37° C. For partial deglycosylation, purified rHuPH20 (0.5 mg/mL final concentration) was incubated with 0.3 units/mL of endoglycosidase (either EndoF1, EndoF2, EndoF3 or EndoH) or a mixture all four endoglycosidases in 50 mM sodium acetate buffer pH 5.0 overnight at 35° C. Deglycosylation of rHuPH20 was analyzed by the shift in the mobility of PH20 by SDS-PAGE. Hyaluronidase enzymatic activity was determined as described in Example 5.

rHuPH20 activity after glycosidase treatment (assay readout) (rHuPH20 0.0080 U/ml): 1.9172 | rHuPH20 activity after glycosidase treatment (assay readout) (rHuPH20 0.0400 U/ml): 1.9926 | rHuPH20 activity after glycosidase treatment (assay readout) (rHuPH20 0.2000 U/ml): 1.9173 | rHuPH20 activity after glycosidase treatment (assay readout) (rHuPH20 1.0000 U/ml): 1.9315
B1: PNGaseF: purified rHuPH20 incubated with PNGaseF (complete deglycosylation) (protein, listed as Homo sapiens)
chain: LNFRAPPVIPNVPFLWAWNAPSEFCLGKFDEPLDMSLFSFIGSPRINATGQGVTIFYVDRLGYYPYIDSITGVTVNGGIPQKISLQDHLDKAKKDITFYMPVDNLGMAVIDWEEWRPTWARNWKPKDVYKNRSIELVQQQNVQLSLTEATEKAKQEFEKAGKDFLVETIKLGKLLRPNHLWGYYLFPDCYNHHYKKPGYNGSCFNVEIKRNDDLSWLWNESTALYPSIYLNTQQSPVAATLYVRNRVREAIRVSKIPDAKSPLPVFAYTRIVFTDQVLKFLSQDELVYTFGETVALGASGIVIWGTLSIMRSMKSCLLLDNYMETILNPYIINVTLAAKMCSQVLCQEQGVCIRKNWNSSDYLHLNPDNFAIQLEKGGKFTVRGKPTLEDLEQFSEKFYCSCYSTLSCKEKADVKDTDAVDVCIADGVCIDAFLKPPMETEEPQIFY
modifications: N-glycans removed by PNGaseF; soluble rHuPH20 36-482

Reference: patent US9284543B2, “Neutral active soluble truncated PH20 polypeptides and uses thereof” (Halozyme, Inc., priority 2008, dated 2016)
